The target in this assay is Myc expressed from a co-transfected Myc expressing plasmid (pSpMyc). In words: cell-based or functional assay.

Myc-dependent transcriptional activity (pM4luc luciferase reporter, NIH-3T3 cells) data for 1 substance are collected here from patent publication US20030004092A1.

“cdr2 expressed from a co-transfected cdr2 expressing plasmid”: the Myc-dependent transcriptional activity (pM4luc luciferase reporter, NIH-3T3 cells) is 4 fold.
